From article PMC10405849, “Soluble CD93 lectin-like domain sequesters HMGB1 to ameliorate inflammatory diseases” (Theranostics, 2023)

Target: T1, soluble recombinant human CD93 ectodomain protein rCD93D123 (Thr22-Lys580) (human, UniProt Q9NPY3 22-580)
T1 construct: CD93, human, ectodomain D1 (lectin-like domain) + D2 (five EGF-like repeats) + D3 (mucin-like domain), residues Thr22-Lys580; also called soluble rCD93; source: HEK293 cell protein expression system, purified (nickel-chelating Sepharose column)
T1 sequence (looked up): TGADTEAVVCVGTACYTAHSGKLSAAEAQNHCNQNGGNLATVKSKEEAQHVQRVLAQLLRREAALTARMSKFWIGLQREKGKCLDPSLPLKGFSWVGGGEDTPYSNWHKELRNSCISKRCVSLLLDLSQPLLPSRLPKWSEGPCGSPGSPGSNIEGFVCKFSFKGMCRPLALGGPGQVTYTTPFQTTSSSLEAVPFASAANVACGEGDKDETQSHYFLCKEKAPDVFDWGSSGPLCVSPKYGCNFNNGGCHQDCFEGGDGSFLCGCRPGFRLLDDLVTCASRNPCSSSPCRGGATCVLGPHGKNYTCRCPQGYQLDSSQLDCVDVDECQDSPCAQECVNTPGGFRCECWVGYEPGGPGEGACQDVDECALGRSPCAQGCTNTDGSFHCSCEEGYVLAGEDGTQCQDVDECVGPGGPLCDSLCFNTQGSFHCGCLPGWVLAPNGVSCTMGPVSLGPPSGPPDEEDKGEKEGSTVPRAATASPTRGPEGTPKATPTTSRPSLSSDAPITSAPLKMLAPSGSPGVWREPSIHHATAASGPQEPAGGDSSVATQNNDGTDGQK
Test: co-IP; rCD93D123 (5 nM) and HMGB1 (5 nM) incubated 1 hour at 37 °C in 50 mM Tris-HCl, 100 mM NaCl, 0.25% Triton X-100, 1 mM MgCl2, 2 mM EGTA; precipitated with anti-HMGB1 antibody on protein A agarose overnight at 4 °C; blot with anti-c-Myc antibody
Conditions: both partners purified

binding result: binds
B1: recombinant human high-mobility group box 1 (HMGB1) protein (natural protein, UniProt P09429 1-215, looked up)
chain: MGKGDPKKPRGKMSSYAFFVQTCREEHKKKHPDASVNFSEFSKKCSERWKTMSAKEKGKFEDMAKADKARYEREMKTYIPPKGETKKKFKDPNAPKRPPSAFFLFCSEYRPKIKGEHPGLSIGDVAKKLGEMWNNTAADDKQPYEKKAAKLKEKYEKDIAAYRAKGKPDAAKKGVVKAEKSKKKKEEEEDEEDEEDEEEEEDEEDEDEEEDDDDE
notes: High-mobility group box 1 protein, human, recombinant; No catalogue number is printed; source: bought: R&D Systems
